From US20130184211A1 (NEW YORK UNIVERSITY, published 2013)

Target: T1, 1:1 binary complex of the ectodomains of FGFR1c and Klotho (human; murine, UniProt O35082 35-982)
T1 construct: range 35-982; also called FGFR1c-Klotho complex; binary FGFR1c-Klotho complex; not shown: C-terminal FLAG tag
T1 sequence 1: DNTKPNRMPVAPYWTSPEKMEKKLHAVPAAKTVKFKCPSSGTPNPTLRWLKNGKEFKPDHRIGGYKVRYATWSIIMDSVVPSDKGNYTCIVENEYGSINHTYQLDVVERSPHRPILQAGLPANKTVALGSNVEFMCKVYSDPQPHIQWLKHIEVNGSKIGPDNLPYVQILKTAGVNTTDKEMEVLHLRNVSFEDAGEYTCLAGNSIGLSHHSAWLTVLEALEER
T1 sequence 2: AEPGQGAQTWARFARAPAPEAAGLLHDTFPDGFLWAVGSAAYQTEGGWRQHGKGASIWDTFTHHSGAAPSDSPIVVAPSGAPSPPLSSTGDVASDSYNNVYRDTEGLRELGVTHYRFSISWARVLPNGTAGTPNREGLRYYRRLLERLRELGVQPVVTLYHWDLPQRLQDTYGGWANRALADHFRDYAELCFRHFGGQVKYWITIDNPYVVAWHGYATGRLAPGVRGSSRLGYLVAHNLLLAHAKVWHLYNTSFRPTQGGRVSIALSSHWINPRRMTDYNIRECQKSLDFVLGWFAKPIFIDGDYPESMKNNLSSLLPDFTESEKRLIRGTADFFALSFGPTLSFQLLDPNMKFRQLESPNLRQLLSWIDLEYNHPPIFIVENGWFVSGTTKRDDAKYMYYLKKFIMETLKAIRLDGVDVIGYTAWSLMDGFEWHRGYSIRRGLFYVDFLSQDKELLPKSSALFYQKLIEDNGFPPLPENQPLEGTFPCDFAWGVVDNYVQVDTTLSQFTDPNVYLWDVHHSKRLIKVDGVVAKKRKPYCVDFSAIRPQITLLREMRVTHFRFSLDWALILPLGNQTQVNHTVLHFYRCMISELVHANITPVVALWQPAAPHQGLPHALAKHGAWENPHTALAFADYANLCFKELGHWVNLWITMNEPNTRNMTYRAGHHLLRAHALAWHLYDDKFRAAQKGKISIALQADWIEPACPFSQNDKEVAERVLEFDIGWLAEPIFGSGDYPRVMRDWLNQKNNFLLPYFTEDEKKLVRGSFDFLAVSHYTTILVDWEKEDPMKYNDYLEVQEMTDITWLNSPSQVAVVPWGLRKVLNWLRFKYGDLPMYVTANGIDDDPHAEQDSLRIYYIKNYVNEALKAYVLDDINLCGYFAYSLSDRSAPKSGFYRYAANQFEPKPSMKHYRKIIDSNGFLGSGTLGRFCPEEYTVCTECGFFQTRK
Test: SPR competition dose-response: FGF23^180-251 mixed with a fixed concentration of FGFR1c-Klotho, immobilized FGF23^28-251 as competitor; averaged data of two to three experiments
Description: Increasing concentrations of FGF23²⁸⁻²⁵¹ (0-50 nM) were mixed with a fixed concentration of 1:1 complex of the ectodomains of FGFR1c and Klotho (15 nM and 20 nM, respectively) in HBS-EP buffer, and the mixtures were passed over the FGF23 chip. In the other—reverse—assay, FGF23¹⁸⁰⁻²⁵¹ was immobilized on a chip (˜48.4 fmole/mm² of flow channel). Increasing concentrations of FGF23²⁸⁻²⁵¹ (0-50 nM) were mixed with a fixed concentration of 1:1 complex of the ectodomains of FGFR1c and Klotho (20 nM) in HBS-EP buffer, and the mixtures were passed over the chip. As a control, competition of FGF23 C-terminal tail peptide in solution with immobilized FGF23 C-terminal tail peptide for binding to the binary FGFR1c-Klotho complex was studied. Increasing concentrations of FGF23¹⁸⁰⁻²⁵¹ (0-400 nM) were mixed with a fixed concentration of 1:1 complex of the ectodomains of FGFR1c and Klotho (20 nM) in HBS-EP buffer, and the mixtures were passed over the FGF23¹⁸⁰⁻²⁵¹ chip.
To fully nail down that the C-terminal tail of FGF23 mediates FGF23 binding to the binary FGFR1c-Klotho complex, a fixed concentration of FGFR1c-Klotho was mixed with increasing concentrations of FGF23¹⁸⁰⁻²⁵¹, and the mixtures were passed over the FGF23 chip. Mixtures of FGF23²⁸⁻²⁵¹ with FGFR1c-Klotho were used as a control. […]

IC50 (read off the curve): ~50 nM
B1: N-terminally hexahistidine-tagged 72-amino acid C-terminal tail of human FGF23 (S180 to I251), FGF23^180-251 (peptide)
peptide: SAEDDSERDPLNVLKPRARMTPAPASCSQELPSAEDNSPMASDPLGVVRGGRVNTHAGGTGPEGCRPFAKFI
notes: Expressed in E. coli; also called FGF23 C-terminal tail peptide; C-terminal tail of FGF23; not shown: N-terminal hexahistidine tag (six His)
